According to EP1882698A1 (Chemokine Therapeutics Corp., dated 2008):
Non-standard residues stand in square brackets, D forms with d. No end group written: not given here. Aun = NCCCCCCCCCCC(=O)O

The binders below were run against T1, CXCR3 receptor (UniProt P49682 1-368, limits assumed) (assay: cell-based or functional assay).
T1 sequence (looked up): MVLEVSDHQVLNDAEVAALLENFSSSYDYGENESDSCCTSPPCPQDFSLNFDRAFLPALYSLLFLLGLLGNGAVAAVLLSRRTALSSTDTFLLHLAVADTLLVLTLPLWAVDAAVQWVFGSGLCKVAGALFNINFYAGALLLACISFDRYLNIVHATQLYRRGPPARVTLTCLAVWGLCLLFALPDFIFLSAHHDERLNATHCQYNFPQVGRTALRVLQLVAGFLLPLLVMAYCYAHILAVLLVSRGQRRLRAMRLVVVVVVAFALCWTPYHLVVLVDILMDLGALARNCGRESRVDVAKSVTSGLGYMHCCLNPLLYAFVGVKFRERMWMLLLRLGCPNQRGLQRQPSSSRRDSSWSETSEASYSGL

Binder	calcium mobilization activity of CXCR-3/300-19 cells, dosage 1.2 µM	calcium mobilization activity of CXCR-3/300-19 cells, dosage 3.7 µM	calcium mobilization activity of CXCR-3/300-19 cells, dosage 11.1 µM	calcium mobilization activity of CXCR-3/300-19 cells, dosage 33.3 µM	calcium mobilization activity of CXCR-3/300-19 cells, dosage 100 µM
Ac-VPLSRTVRCTCISISN[Aun]LKAVSKEMSKRSP (cysteine pairing not given here) [Acetylated-IP-10-(1-16)-[linker]-IP-10-(66-78)]	12.6	12.7	14.1	20	52.9
Ac-VPLSRTVRATFISISN[Aun]LKAVSKEMSKRSP [Acetylated-[Ala^9,Phe^11]-IP-10-(1-16)-[linker]-IP-10-(66-78)]	15.2	13.8	15.4	20	3.1
VPLSRTVRSTSISIS[Aun]ESKAIENLLKAVSK [[Ser^9,Ser^11,Glu^63]-IP-10-(1-15)-[linker]-IP-10-(58-71)]	18.8	18.5	17.2	18.9	46.6
VPLSRTVRSTSISIS[Aun]ESKAIKNLLEAVSK [[Ser^9,Ser^11,Glu^67]-IP-10-(1-15)-[linker]-IP-10-(58-71)]	17.4	15.4	12.5	13.3	3.4
VPLSRTPRCTCISIS[Aun]ESKAIKNLLKAVSK (cysteine pairing not given here) [[Pro^7]-IP-10-(1-15)-[linker]-IP-10-(58-71)]	16	14	14.4	18.6	55.1
